Measured values as given in the DeepSol protein solubility set.

Assay: soluble on expression in E. coli; label from the status in PepcDB or PDB records

Soluble on expression in E. coli, not soluble:
MGSDKIHHHHHHMKIYVDGREVIINDNERNLLEALKNVGIEIPNLCYLSEASIYGACRMCLVEINGQITTSCTLKPYEGMKVKTNTPEIYEMRRNILELILATHNRDCTTCDRNGSCKLQKYAEDFGIRKIRFEALKKEHVRDESAPVVRDTSKCILCGDCVRVCEEIQGVGVIEFAKRGFESVVTTAFDTPLIETECVLCGQCVAYCPTGALSIRNDIDKLIEALESDKIVIGMIAPAVRAAIQEEFGIDEDVAMAEKLVSFLKTIGFDKVFDVSFGADLVAYEEAHEFYERLKKGERLPQFTSCCPAWVKHAEHTYPQYLQNLSSVKSPQQALGTVIKKIYARKLGVPEEKIFLVSFMPCTAKKFEAEREEHEGIVDIVLTTRELAQLIKMSRIDINRVEPQPFDRPYGVSSQAGLGFGKAGGVFSCVLSVLNEEIGIEKVDVKSPEDGIRVAEVTLKDGTSFKGAVIYGLGKVKKFLEERKDVEIIEVMACNYGCVGGGGQPYPNDSRIREHRAKVLRDTMGIKSLLTPVENLFLMKLYEEDLKDEHTRHEILHTTYRPRRRYPEKDVEILPVPNGEKRTVKVCLGTSCYTKGSYEILKKLVDYVKENDMEGKIEVLGTFCVENCGASPNVIVDDKIIGGATFEKVLEELSKNG
MGSDKIHHHHHHMKKATDKNPTTTSKPNTITPLFTTNYNVYINHTDAGGIVYHANHLVFFENCRRDWFTQLGLNGYFLESNDGQIQHFVVTQADLQYKHAILLDEVINVRIDNVEIKPASIVFYQSIYRQQSQDNTANNAKAVLLSSTKIVVACVQNQITPDSIDNNASNNTAPMRPVRVPQKLRDAIERAIAEHIVEIL
MGSDKIHHHHHHMKKGLVMEGGAMRGLYTAGVTDVLMKYGIKFDGAVGVSAGVTFGCNYKSLQPGRVLRYNLRYGSRPQFKSWRSWIKTGDLYGADFCYYTLPEVLDPFDTAAFARNPMDFWCVATDVETAQPAYHKLTTGKGRDVAWIRASASIPVFARPVKIGGHAYWDGGVSDSIPVRFLLDKDYDKAVVILTQPAGYQKEPSRLQPVIDRVLKKYPAVVARLRQRHLEYNACLAYIAKEEAAGHLFVFRPSQGIDVSAMEKDPNRLKAVYQVGVRGCQAAIGGLEGIFTRLSTKNGD
MGSDKIHHHHHHMKKIFKSIANSANCLADVLFPPHCLVCDSGLVLGETDVCSTCLSTLPTVNDDYSPDSLYLRLSIELRPSFVWAYLLFDSKNKTQKILHAIKYGDAPDIAVRLAMIWTDRIRESLVEADVDLIMPIPLHKSKLRKRGYNQATKIAEGIQKIVPIPIEESVLIRKRNLFIQAKSKRAKRFENVKQVYAIQHIEKVAGKHILLVDDVLTTGATLEACGLLLKNAGAAKVSVALLAMVAD
MGSDKIHHHHHHMKKLALISLDGNGIYNLKYMPFLSELAEKGDIFTVDSIFPTLTDLVHTTVMTGVEPRHHWVVENGYYDRLSGVRVKFYEYDVAFNPHKVIKAPLIQDILRQRGVRIASVSGYTMPPFSNVDVRIFPPFFSSDELYRRHGRDWKKDVWVLNSALYLYEECKPDLLLVHFASIDGMQHDHGPESREALKAVETVDSAIRALWERLKDEYAFIIFADHGQEEVHTWVNLREYLRNKGIETLRVSSGGGVHVYLKDPREREDAYEVLRRAPGVKAVFLREDLPYLNAPVSGDLIVSAKEGFWFCHHRECKGIKGKSYWVRGMHGSLNERVVKVPLVLWNLEAKKEEATLYDIAPTILKFFGVEKRVEMIGKSLI
MGSDKIHHHHHHMKKVLVAGATGYLGRYAVQEFKNRGYWVRALVRNPEKFKKPGPFFAPEIDTLVDDVVFGDATKPETIAGLCDGIDVVFSSLGMIKPDFEHDNFDVDYQGNMNILAEALKAGVKKFVYVSVFDAHRMMNIPNVQAHEKFVRELQAAKIESTIIRPNGFFSEIGQFVARARRGFMLWIGDGYNRQNPIHGADLAKVCADAVDSSEKEIEVGGPEVFTYREMVDLAIEIAGTQPVQVSLPFWLADGIVGVLGLFNRDVHDVALFATTLSKMDFVSPKYGTHRLRDFFNECKLLPL
MGSDKIHHHHHHMKKYVIVTGGVLSGIGKGIFSASLARLMKEHGVDVNVLKIDPYLNVDAGTMNPNQHGEVFVTEDGYEADLDLGHYERFLGRDMTRQNNMTAGQVYLRVIEKERQGKYLGNTVQIVPHLTEEIKDRIRALEAELLVVEIGGTVGDIEGEVFLEAVRELQMEEGKENFLFAHVTYVPYLRTTNEFKTKPTQQSVQLLRRIGITPDMVIVRSEFPLDVPSMNKVALFSGVPRDFVINLPDTKNVYEVPEILRDMGLHEKIASKLNVELKKSTFNWSYPKAFKPYRIALVGKYLGTDDAYKSIIESVFLTGIEKPTVVDSQMLEDMNDEEVKKVLDEYDALIIPGGFGRRGVEGKIKAIKYARENKKPILGICLGMQLMVIEFARNVFGYKEANSTEFDPNTPYPVVDLMEEQKRILKLGGTMRLGAQKVKIFPKTKLYEVYGGVEEVYERHRHRYEANEEAFPELFKKPGEEGYKLVVSAKSDFIEAVELEDHPFFVGVQFHPEYKSKVGAPHPIFVYLRKVLEGSQ
MGSDKIHHHHHHMKLETIDYRSPDAAAQFVQSLRDTGFGVLSNHPIQQSLVEAIYKDWYEFFQSGAKEEFRFNPETQDGFFPADVSETAKGHSVKDIKEYYHVYPWGRIPESLRANILAYYDHANQLAAELLSWVEAHSPDEVKALFTEPLPNMIDGSHKTLLRVLHYPPMKGDEEPGAIRAAAHEDINLLTVLPAANEPGLQVKAKDGTWLDVPSDFGNIIINIGDMLQEASGGYFPSTSHRVINPEGMDKTKSRISLPLFLHPRPDVVLSERYTADSYLMERLRELGVI
MGSDKIHHHHHHMKLGVFTVLYGNLSFTEMLDKVKGAGVQAVEIGTGGYPGDAHCPRQELLTSAEKRKRYQEELEQRGLLLGSFSCHGNPLSPDEAFRKESDQALRETIELAGKMNVPVVNCFSGTAGDHEGAKYPNWPVAPWPNEYRHILEWQWEEKLIPYWKEIGEWAETHGVKVALELHGGFLVHTPYTLLTLRKATSPAIGANLDPSHLWWQGIDPVAAIKILGREGAIHHFHAKDTFIDQEQVNMYGLTDMQPYTHIQTRAWNFRSVGCGHDLHEWTQMISALRTYGYDHVISIEHEDPLMSIDEGFETAVRNLKPLLIKEKPTEMWWA
MGSDKIHHHHHHMKLIATDMDGTLLNDERKISKENAEAIKAAQQDGIHVVVATGRDFKEASMPLKEAGLTCPILCVNGAEERSANGELIHAVSLAKNEALTILDILTAADVYFEVYTNRGAFTDDYEKGLEIVIDVLQSAGSDDSYEKMREIAKHRFESGAVQLTEDYTKLIDSTAVYKFLAFSRDETKRQAAKDDLEKKDVFSVSASASDNLEITHWQAQKGIALRRLAERLGINSDDVMAIGDNLNDVSMLKYAGTAVAMENGEAEVKQLADFVTASNEDNGVAKAINKWLK
MGSDKIHHHHHHMKLNRIPVVFILVLQFLSCMRKDEVLSTDPSDRLEFSEDTVFFDTLFSSVGSITKRLLVYNPGKNKIRISSVTLAGGSNSAYSVIVNGLNGPSISDIDIRGNDSIYVLVKVLIDPSNQDLPFLVSDSILFYTNTNRQKVLLSAYGQDAHFFGKESIACDAVWVNDKPYVLYDTLQVNTGCTLTIQPGCKIYFHTAAALNVRGTLIAQGSSSEPLLFASDKLSKTAQDDRGQWGGLIFQSSSSGNVISWATIRNSSTAIKLFPVIDADTIAELSLDHTFLLHASVRLIDAQEVDLAGSNLVLSDCPKALLKHTAGCGVWKHCTFANYSSGFFREETNLVLGSNMGSLKMYVLNSILWGDKSNEVTANNTPSLSLQSCIWRSAYMGTNTNVITSNPLFSKPSAFDFSLTAGSSAIDLCTGVGVPDDIAAGNRDSTPDAGAYEFK
MGSDKIHHHHHHMKLPPLQIGDLKADIPIIQGGMGVGISRSSLASAVANCGGVGTISGVQIGFDEPDFETNTFNANIRALNKHIKKAKQESKRGIIAVNFMVAMNDYDKYVKSAVDAGADLIVSGAGLPTALPKIVEGSKVKIAPIVSSPKAASVICKMWDKHHGRIPDLIVVEGPEAGGHLGFKAEQVKGSHEELSDILTGVLTAIKPFEEKHGVKIPVVCGGGVFYGKDIAKYIKLGASGVQMATRFIATEECDANLNYKNVYVNCKEDDIKIVKSPVGMPGRAISNKFVQSNDKNITITKCYNCLKPCNPKDTPYCISKALINAVNGNVDEALLFTGAKSYKIDKIVKVKELINELISDAECEF
